Biological target: cell surface bound heterodimeric receptor protein comprising a tyrosine kinase FGFR1c and a beta-Klotho protein (UniProt P11362)
Assay: cell-based or functional assay

Sequence of UniProt P11362 (P11362 22-822, chain 1 of 2): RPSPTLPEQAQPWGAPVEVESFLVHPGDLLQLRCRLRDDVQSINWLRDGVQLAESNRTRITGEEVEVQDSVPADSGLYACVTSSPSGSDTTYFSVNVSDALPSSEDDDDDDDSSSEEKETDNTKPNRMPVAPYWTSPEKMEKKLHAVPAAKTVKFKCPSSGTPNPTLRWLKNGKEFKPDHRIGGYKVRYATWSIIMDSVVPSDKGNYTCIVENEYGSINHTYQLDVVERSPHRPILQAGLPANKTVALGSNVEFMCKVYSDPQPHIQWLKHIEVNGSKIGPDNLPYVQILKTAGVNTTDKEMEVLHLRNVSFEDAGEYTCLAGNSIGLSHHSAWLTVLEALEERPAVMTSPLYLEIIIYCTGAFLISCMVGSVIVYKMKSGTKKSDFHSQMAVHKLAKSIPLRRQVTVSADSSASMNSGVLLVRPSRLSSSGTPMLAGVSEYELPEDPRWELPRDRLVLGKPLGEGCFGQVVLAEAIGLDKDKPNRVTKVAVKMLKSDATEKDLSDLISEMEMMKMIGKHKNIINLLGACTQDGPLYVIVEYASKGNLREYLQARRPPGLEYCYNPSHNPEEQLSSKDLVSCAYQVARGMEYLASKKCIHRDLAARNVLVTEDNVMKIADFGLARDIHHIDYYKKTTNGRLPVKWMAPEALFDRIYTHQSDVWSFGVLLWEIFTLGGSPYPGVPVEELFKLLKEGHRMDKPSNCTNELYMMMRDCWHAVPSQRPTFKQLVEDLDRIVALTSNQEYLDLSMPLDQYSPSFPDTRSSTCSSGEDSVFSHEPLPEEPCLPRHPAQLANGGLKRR
Sequence of UniProt P11362 (Q86Z14 whole entry, chain 2 of 2, further chain): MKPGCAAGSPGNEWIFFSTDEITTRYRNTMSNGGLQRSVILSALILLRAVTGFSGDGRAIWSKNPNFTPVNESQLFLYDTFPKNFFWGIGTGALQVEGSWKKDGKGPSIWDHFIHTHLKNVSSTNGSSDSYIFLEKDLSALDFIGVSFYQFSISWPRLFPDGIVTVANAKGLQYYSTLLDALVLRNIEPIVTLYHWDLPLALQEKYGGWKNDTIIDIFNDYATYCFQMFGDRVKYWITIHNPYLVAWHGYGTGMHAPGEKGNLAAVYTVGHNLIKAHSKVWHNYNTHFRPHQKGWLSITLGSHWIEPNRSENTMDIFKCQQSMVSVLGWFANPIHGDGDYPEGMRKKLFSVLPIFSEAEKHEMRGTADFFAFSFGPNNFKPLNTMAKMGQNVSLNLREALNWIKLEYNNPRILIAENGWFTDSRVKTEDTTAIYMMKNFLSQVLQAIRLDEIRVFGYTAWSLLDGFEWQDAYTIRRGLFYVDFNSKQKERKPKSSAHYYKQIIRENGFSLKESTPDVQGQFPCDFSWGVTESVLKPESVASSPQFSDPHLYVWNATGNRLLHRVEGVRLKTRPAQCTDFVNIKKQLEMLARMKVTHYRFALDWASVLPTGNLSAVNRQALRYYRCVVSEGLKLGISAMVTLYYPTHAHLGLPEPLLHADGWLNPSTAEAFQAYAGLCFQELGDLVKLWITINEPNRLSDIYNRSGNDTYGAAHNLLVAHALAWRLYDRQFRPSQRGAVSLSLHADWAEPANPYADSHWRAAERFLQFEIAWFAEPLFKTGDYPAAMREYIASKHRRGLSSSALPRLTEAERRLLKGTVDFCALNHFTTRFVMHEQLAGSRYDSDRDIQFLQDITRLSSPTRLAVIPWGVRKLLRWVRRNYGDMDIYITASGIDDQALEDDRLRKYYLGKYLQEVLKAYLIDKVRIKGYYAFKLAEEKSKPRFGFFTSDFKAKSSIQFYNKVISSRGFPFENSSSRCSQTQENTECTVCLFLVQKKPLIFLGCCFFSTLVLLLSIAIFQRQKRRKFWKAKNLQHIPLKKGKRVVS

human FGF21 (from UniProt Q9NSA1 29-209) (ligand)
EC50 of firefly luciferase reporter-gene response (Gal4-Elk-1), HEK293 cells with FGFR1c and optimized synthetic beta-Klotho gene, treated with increasing concentrations of human FGF21: 0.003 µg/mL
EC50 of firefly luciferase reporter-gene response, HEK293 cells with FGFR1c and native beta-Klotho gene, freeze, thaw and use format: 0.024 µg/mL
EC50 of firefly luciferase reporter-gene response, HEK293 cells with FGFR1c and optimized synthetic beta-Klotho gene, freeze, thaw and use format: 0.007 µg/mL
EC50 of firefly luciferase reporter-gene response, Jurkat cells transfected with the native beta-Klotho gene (Table 1): 0.172 µg/mL
EC50 of firefly luciferase reporter-gene response, Jurkat cells with FGFR1c and native beta-Klotho gene, freeze, thaw and use format: 0.17 µg/mL
